A short description of this data set: yeast display, Sf9 membrane polyspecificity reagent, FACS + sequencing; frameworks hold sequencing errors. In a few lines:
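Synthetic nanobody libraries on Saccharomyces cerevisiae BJ5465 were galactose-induced for 36–48 hours, stained 1 hour at 4 °C with 10% biotinylated, detergent-solubilized Sf9 membrane reagent and enriched on streptavidin microbeads. FACS then separated cells into low and high (top ~1%) gates by anti-HA (expression) and streptavidin (reagent binding) fluorescence. Genes were colony-PCR amplified, MiSeq 2 × 250 sequenced and CDR-length filtered. A clone's polyreactivity label is that of its gate of origin.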
Regarding “QVQLVESGGGLVQAGGSLRLSCAASGLIFVDNAMGWYRQAPGKERELVAAIDSGGRTYYADSVKGRFTISRDNAKNTVYLQMNSLKPEDTAVYYCAAPWRLFCLYDYWGQGTQVSVSS”, the “polyreactivity (PSR sort gate)” value is listed as “low polyreactivity”.
Take “QVQLVESGGGLVQVGGSLRLSCAASGITLTYYALGWYRQAPGKERELVAAIDSGGTTHYADSVKGRFTISRDNAKNTVYLQMNSLKPEDTAVYYCAARPTRGHWWYGYWGQGTQVTVSS”: the “polyreactivity (PSR sort gate)” value was “low polyreactivity”.
On to “QVQLVESGGGLVQAGGSLRLSCAASGSTFVDYAMGWYRQAPGKERELVAAINERGGSTYYADSVKGRFTISRDNAKNTVYLQMNSLKPEDTAVYYCAKQLWVGVKYDYWGQGTQVTVSS”, for which the “polyreactivity (PSR sort gate)” value is reported as “low polyreactivity”.
Then “HVQLVESGGGLVQAGGSLRLSCAASGRIFDWNAMGWYRPAPGKEWELVAAISSRSGGTYYADSVKGRFTISRDNAKNTVYFQMNSLKPEDTAVYYCAADYYWYGRFEYGYWGQGTQVTVSS”, with “low polyreactivity”.
In the case of “QFQLVESGGGLVQAGGSLRLSCAASGRIFCRYAMGWYRQAPGKETELVPVISARGARTYYEDSVKGRFTISRDNAKYTVYLQMNSLKPEDTAVYYCNKVGVLSGYYYPHASGDYWGQGTQVTVSS”, the “polyreactivity (PSR sort gate)” value is given as “high polyreactivity”.
Turning to “QVQLVESGGGLVQAGGSLRLSCAASGRTFGRYAMGWYRQATGKERELVAAISTGGRTYYADSVKGRFTISRDNAKNTVYLQMNSLKPEDTEVYYCNRVVVVGILEMGYWGQGTQVTVSS”, the “polyreactivity (PSR sort gate)” value is “low polyreactivity”.
In the case of “QDQLVESGGGLVQAGGSLRLSCAPSGYFDLNALGWYRQAPGKERELVAANTDGGSTNYADSVKGRFTISRDNAKNTFYLQMNSLKPEDTAVYYCAADRGHTILHGGYWGQGTQVTVSS” it was “low polyreactivity”; in that of “QVQLVESGGGLVQAGGSLRLSCAASGSIFTDNAMGWYRQAPGKERELVAGISYNGDNTYYADSVKGRFTISRDNAKNTVYLQMNSLKPEDTAVYYCAAADGIIESDYWGQGTQVTVSS”, “low polyreactivity”.
As to “QVQLVESGGGLVQAGGSLRLSCAASGFTFSFYAMGWYRQAPGKERELVAAITSRGTSTYYADSVKGRFTISRDNAKNTVYLQMNSLKPEDTEVYYCAKLLPRGQWPYDYWGQGTQVTVSS”, the “polyreactivity (PSR sort gate)” value is given as “high polyreactivity”.
As to “QVQLVESGGGLVQAGGSLRLICAASGFIFTSYTMGWYRQAPGKERELVAAISRSGGRTYYADSVKGRFTISRDNAKNTVYLQMNRLKPVDTAVYYCNAGYPASYYYYGFDYWGQGTQVTVSS”, the “polyreactivity (PSR sort gate)” value is “high polyreactivity”.
With “QVQLVESGGGLVQAGGSLRLSCAASGFTCVPYAMGWYSQAPGKARELVAAITGGGSTYYADSVKGRFTISRDNAKNTVYFQMHSLKPEDTAVYYCAAREARSHRYSNRVYYWGQGTQVTVSS”, the “polyreactivity (PSR sort gate)” value is given as “high polyreactivity”.
Turning to “QVQLVESGGGLVQAGGSLRLSCAASGSIWRNAMGWYRQAPGKERELVAGITRRSGSTYYADSVKGRFTISRDNAKYTVYLQMNSLKPEDTAVYYCARVVVGGDDYWGQGTQVTVSS”, the “polyreactivity (PSR sort gate)” value is “high polyreactivity”.
Then “QVQLVESGGGLVQAGGSLRLSCAASGSIFSPNAMGWYRQAPGKERELVAGISWSGDGTYYADSVKGRFTISRDNAKNTVYLQMNSLKPEDTAVYYCAARFGRYSHRYYYWGQGTQVTVSS”, with “high polyreactivity”.
On to “QVQLVESGVGSVQAGGSLRLSCAASGATFPGNAMGWYRQAPGKERELVAAIRDRGTSTYDADSVKGRFTISRDNAKNTVYLQMNSLKPEDTAVYYCAAASRVAKGRWRLYDYWGQGTQVTLSS”, for which the “polyreactivity (PSR sort gate)” value is reported as “high polyreactivity”.
Consider “QVQLVESGGGLVQAGGSLRLSCAASGFTFVWNARGWYRQAPGKERELVAVISYSGGSTYYADSVKGRFTISRDNAKNTVYLQMNSLKPEETAVDYCAAEFVTYYSSSKRAYYYWGQGTLVTVSS”, for which the “polyreactivity (PSR sort gate)” value was “high polyreactivity”.
As to “QVQLVESGGGLVQAGGSLRLSCAASGYIVGAYAKGWYRQAPGKERELVAGITASGDSTYYADSVKGRFTISRDNAKNTVYLQMKCLKPEDTAVYYCNAQPDIGLYDRQWKEPYEYWGQGTQVTVSS”, the “polyreactivity (PSR sort gate)” value is on record as “low polyreactivity”.
In the case of “QVQLVQSFGGLVQAGGSLRLSCAASGRIFWPYAMGWYRQPPGKERELVAAITGSGSRTYYADSVKGRFTISRDYAKNTVYLHMNSLNREDTAVYYCAATSSTDYDYWGQGTQVTVSS” it was “low polyreactivity”; in that of “QVQLVESGGGLVQAGGSLRLSCAASGNTFKRYAMGRYRQAPGKERELVAAITWRGARTYYADSVKGRLTISRDNAKNTFYLQMNSLKPEDTAVYYCAADGYSGSGPYDYWGQGTQVTVSS”, “high polyreactivity”.
As to “QVQLVESGGGLVQAGGSLRLSCAASGRIIRYYAMGWYRPAPGKERELVAGITTGGGSTYYADSVKGRFTISRDNAKNTVYLQMNSLKPEDTAVYYCAARYYTTYYWGQGTQVTVSS”, the “polyreactivity (PSR sort gate)” value is “high polyreactivity”.
Regarding “QVQLVESGGGLDQAAGSLRLSCAASGSIFDAYMRWYIQAPGKERELVAGITRSGGSTYYADSVKGRFTISRDNAKIKVYLQMNSLKPEDTAVDFCAADYSSDGDYWGLGTQVTVSS”, the “polyreactivity (PSR sort gate)” value was “low polyreactivity”.
Then “QVQLVESGGGLVQAGGSLRLSCAASGRTFGSYAMGWYRQAPGKERELVAAISYRGSTYYADSVKGRFTISRDNAKNTVYLQMNSLKPEDTAVYYCAARSYGGYGYWGQGTQVTVSS”, with “high polyreactivity”; and “QVQLVESGGGLVQAGGSLRLSCAASGFIFAYNAMGWYRQAPGKERELVAAISWSGGSTYYADYVKGRFTISRDNAKNTVYLQMNSLKPEDTAVYYCNAVSYYGARYDYWGQGTQVTVSS”, with “high polyreactivity”; and “QVQLVESGGGLVQAGGSLRLSCAASGSTFRVYAMGWYRQAPGKERELVAAISGSGGSTYYADSVKGRFTISRDNAKNTVSLQMNSMKPEDTAVYYCAARSWYTEYYWGQGTQVTVSS”, with “high polyreactivity”.
In the case of “QVQLVESGGGLVQAGGSLRLSCAASGSIFYVYAMGWYRQAPGKERELVAAINTSSGDTYYADSVKGRFTISRDNAKNTVYLQMNSLKPEDTAVYYCNARTRSSYTIGSYLLSYDYWGQGTQVTVSS”, the “polyreactivity (PSR sort gate)” value was “high polyreactivity”.
Consider “QVQRVESGGGLVQAGGSLRLSCAASGANFSRYAMGWYRPAPGKERELVAAITSGGSTNYADSVKGRFTISRDNAKNTVYLQMTSLKPEDTAVYYCNKRYVVYPGNYWRYDYWGQGTQVTVSS”, for which the “polyreactivity (PSR sort gate)” value is recorded as “high polyreactivity”.
For “QVQLVESGGGLVQAGGSLRISCAASGSNFTRYAMGWYRQAPGKERELVAAISNRGGRTYYADSVKGRFTISRDNAKNTVYLQMNSLKPEDTGVYYCNAATTRRIPQSDNYWGQGTQVTVSS”, the “polyreactivity (PSR sort gate)” value is on record as “high polyreactivity”.
Regarding “QVQLVESGGGLVQAGGTLRLSCAASGSTFSYNAMGWYRQAPGKERELVAAISGSGGRTYYADSVKGRFTISRDNAKNTVYLQMNSLKPEDTAVYYCAARVGAGWSPKYDYWGQGTQVTVSS”, the “polyreactivity (PSR sort gate)” value was “high polyreactivity”.
As to “QVQLVESGGGLVQAGGSLRLSCAASGGIFVPNAMGWSRQAPGKARELVAAISYSGGRTYYADSVKGRFTISRDNAKNTVYLQMTSLKPEDTAVYYCAAEYWFVYHHYNYWGQGTQVTVSS”, the “polyreactivity (PSR sort gate)” value is listed as “high polyreactivity”.
For the sequence “QVQLVESGGGLVQAGGSLRLSCGASGSTFRLYALGWYRQAPGNEWAFVAAISFRGGSTYYADSVKGRFTISRDNAQNTVYLQMNSLKPEDTAVYYCAAEVGTGGVRTPRYEYWGQGTQVTVSS”, the “polyreactivity (PSR sort gate)” value was “high polyreactivity”.
Take “QVQLVESGGGLVQAGGSLRLSCAASGRIQSVYAMGWYRQAPGKERELVAAIDYSGGSTNYADSVKGRFTISRDNGKNTVYLQMNSLKPEDTAVYYCNREGGAIAWRYLLEYLYSWGQGTQVTVSS”: the “polyreactivity (PSR sort gate)” value is “low polyreactivity”.
“QVQLVESGGGLVQAGGSLRLSCAASGSIFGFYAMGWYRQAPGKEREMVAAITRSGDSTYADSVKGRFTISRDNAKNTVYLQMNSLKPEDTAVYYCADDIDRSDVNSESYDYDYWGQGTQVTVSS”: the “polyreactivity (PSR sort gate)” value is on record as “low polyreactivity”.
In the case of “QVQLVESGGGLVQAGGSLRLSCAASGSIFSSNAMGWYRQAPGKERELVAAITGSDGSTYYADSVKGRFTISRDNAKNTVYLQMNSLKPEDTAVYYCAAVGRYYYFDGFYYWGQGTQVTVSS”, the “polyreactivity (PSR sort gate)” value is listed as “low polyreactivity”.
Turning to “QVQLVESGGGLVQAGGSLRLSCAASGRTFTDYTMGWSRQAPGKERELVASISSGVTYADSVKGRFTISRDNAKYTVYLQMNSLKPEDTEVYYCAARLWYVQGYVPYVHHRFDYWGQGTQVTVSS”, the “polyreactivity (PSR sort gate)” value is recorded as “low polyreactivity”.
With “QVQLVESGGGLVQAGGSLSLTCAASGSTFPGYPMGWYRQAPGKERELVAAINWRGDSTYYADSVKGRFTISRDNAKNTVYLQMNSLKPEDTAVYYCAAVRGTGTRRYDYWGQGTQVTVSS”, the “polyreactivity (PSR sort gate)” value was “high polyreactivity”.
Consider “QVQLVESGGGLVQAGGSLRLSCGASGFIFKSYAMGWYRQATGKERELVAAFSRSGSSTYYADSVMGRFTISRDNAKNTVYLQMNSLKPEDTAVYYCAKKGYRFIHFGYDYWGQGTQVTVSS”, for which the “polyreactivity (PSR sort gate)” value was “high polyreactivity”.
In the case of “QVQLVESGGGLVQAGGSLRLSCAASGRIYDYMGWYRQAPGKERELVAAITSSGVSTYYADSVKGRFTISRDNAKNTVYLQMNSLKPEDTAVYYCAAERVYIVWFTHEIFNYWGQGTQVTVSS” it was “high polyreactivity”; in that of “QVQLVESGGGLVQAGGSLRLSCAASGFIFVYYAMGWYRQAPGKERELVAAITWRGGSTNYADSVKGRFTISRDNAKNTVYLQMNSLIPEDTAVYYCAAYSVWGGSYLALDYWGQGSQVTVSS”, “low polyreactivity”; in that of “QVQLVESGGGLVQAGGSLRLSCAASGIIYYGYAMGWYRQAPGKERELVAAISRSGGSTYYADSVKGRFTISRDNAKNTVYLQMNSLKPEDTAVYYCAASGVTYDYWGQGTQVTVSS”, “high polyreactivity”.
Take “QDQLEESGGCLVQAGGSLRLSCAASGRIFYGYVMRWYRQAPGKERELVAAINQSGTSTYYADSVKGRFTISRDYAKNTVYLQMNSLKPEDTAVYYCAKDWAYRRHWVGFYYWGQGTQVTVSS”: the “polyreactivity (PSR sort gate)” value was “low polyreactivity”.
On to “QVQLVESGGGLVQAGGSLRLSCAASGSIFSTYAMGWYRQAPGKERELVASINYSGGSTYYADSVKGRFTISRDNAKNTVYLQMNSLKPEDTAVYYCNTGPFVGFDYWGQGTQVTVSS”, for which the “polyreactivity (PSR sort gate)” value was “low polyreactivity”.
Regarding “QVQLVESGGGLVQAGGSLRLSCAASGFTFTGNAMVWYRQAPGKERELVAAIRGSGGSTYYADSVKGRFTISRDNAKNTVNLQMKSLKPDVTAVYYCATYYIRNKGFDYWGQGTQVTVSS”, the “polyreactivity (PSR sort gate)” value is reported as “high polyreactivity”.

Values taken from the nanobody polyreactivity screen of Harvey et al. (2022).
